± gives the standard deviation of the averaged measurements.
System: Saccharomyces cerevisiae
Assay: protein stability index of tFT-peptide fusion (C-terminal peptide) (PSI (0-1 scale)); higher = more stable (slower turnover)
Conditions: genetic background: wild type; temperature: 30 C
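Also: PSI is a weighted mean of sequencing reads over stability bins, variants kept only with over 10 reads, mCherry proximal and sfGFP distal, peptide attached via GGGS linker.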

Sequence	protein stability index
VPFPHALLSALP	0.638 ± 0.037
ASPPAYCPPPPP	0.666 ± 0.039
LNLRTFATFFRY	0.635 ± 0.077
LYIYSPFGLFAF	0.562 ± 0.0082
LEEGLYQQEDIR	0.722 ± 0.076
MLYFSGLQVTIL	0.622 ± 0.0075
FQAVSPRFLVLP	0.64 ± 0.046
IRKLDIIFLSES	0.827 ± 0.063
RRRTARVRTGQV	0.647 ± 0.043
RFVGVGWRVEGG	0.676 ± 0.019
GGVGEFGEGALA	0.689 ± 0.044
NRLRNAGEPTND	0.782 ± 0.069
GAVTWGGAGVGV	0.694 ± 0.022
PLPPPPRPPLRP	0.6941 ± 0.0052
KGQIVIDTKGGG	0.609 ± 0.053
KIGYTISGFVIS	0.707 ± 0.054
RKYKKKKGSKEE	0.708 ± 0.063
GCGRLWAGIGRR	0.678 ± 0.023
FLSHISVPRGKT	0.773 ± 0.034
PYHLFLSFSLSR	0.725 ± 0.011
HSRALLSVLPPH	0.7023 ± 0.0057
SFTGSASYPKGR	0.667 ± 0.0098
SPASPLDPSSSS	0.712 ± 0.037
KKTKKKQQGKIQ	0.702 ± 0.017
PPLPSGLHPTLT	0.6932 ± 0.0052

Sequence	protein stability index
CANFIGAVPGSV	0.686 ± 0.011
PPPPDLPYPLPL	0.754 ± 0.025
PYPPPPALPSSF	0.667 ± 0.032
RRRRAVGPREAP	0.717 ± 0.17
PNLSPPTPLSAD	0.649 ± 0.018
RKDDRPYIRETS	0.701 ± 0.016
GGGGPVWREPGT	0.761 ± 0.01
PLHSLPSRTPPS	0.7088 ± 0.006
RLRASFFFSPAL	0.733 ± 0.056
GPRTPPKPRQVP	0.616 ± 0.024
PHPAPRRPPLPP	0.687 ± 0.05
GYNARHILGRVG	0.699 ± 0.011
RPRTLLARSTHP	0.717 ± 0.013
DHRGSIWWAGSG	0.702 ± 0.0034
KKKKKNKKNKKY	0.709 ± 0.038
RGVTEYDSGSSL	0.647 ± 0.045
MWVGLWSVGLCG	0.717 ± 0.011
GLLDGEILKRRI	0.6978 ± 0.0053
SNAIPGSHLCRS	0.719 ± 0.093
ALPLSPRTHRCS	0.503 ± 0.097
LRGVGAGPEDVG	0.694 ± 0.017
LCQCAFLSFSCF	0.61642 ± 1.1e-05
HSYLSPPLLASP	0.715 ± 0.069
LISPPAQLAFVP	0.696 ± 0.016
SPPSFIVPSTSL	0.69 ± 0.054

Sequence	protein stability index
KKKKEEKNRQES	0.7 ± 0.077
KSLSEKSKEKGS	0.668 ± 0.034
PPRLAPPDPSLL	0.673 ± 0.022
RSNECTSEMEVC	0.689 ± 0.04
TGRGGAPRAKEE	0.699 ± 0.0039
LFGSMGVLGIGR	0.672 ± 0.061
RRLEPGVAWFPT	0.661 ± 0.01
PPPPPPSPPPPP	0.713 ± 0.038
DSDGILTEPTSW	0.707 ± 0.0094
HPVPFSVASHLN	0.645 ± 0.03
GGGGGGSAVEGG	0.674 ± 0.066
VWGTVCSMRREG	0.63 ± 0.028
RGDVGVGHWVGG	0.708 ± 0.0093
NGDRGQWGMNQR	0.708 ± 0.028
VGDVGESMWGLG	0.727 ± 0.091
VCLVNWLCFFCV	0.529 ± 0.037
GREVRGLRVPGS	0.653 ± 0.071
CFPALSGVQGGM	0.706 ± 0.082
NLQKTRNRRTVE	0.643 ± 0.011
NKQKKKKSTKRN	0.704 ± 0.029
SLVWVVSDLGCG	0.778 ± 0.11
DSCGVFLGDFFQ	0.727 ± 0.026
TRTRSMTQLVPL	0.716 ± 0.068
ALLTPPPLPPTV	0.61 ± 0.061
ASSSLLRCFSRF	0.648 ± 0.062

Sequence	protein stability index
AAVSSDASVLRF	0.628 ± 0.027
LPPLPPLPPPPH	0.686 ± 0.076
APSPPSSPSAPP	0.643 ± 0.052
AAGWLWVWGVEG	0.6429 ± 0.0017
TLPRSLGPSSPA	0.753 ± 0.076
PPPVPPTPFLTR	0.744 ± 0.11
GGGGSGGAGGGG	0.641 ± 0.0089
VPRFTPYRAIFP	0.591 ± 0.016
GPSCSGLHAPTS	0.831 ± 0.1
PHMRSPTPLLRP	0.697 ± 0.077
KQLEKYKDIRRK	0.665 ± 0.061
PPPPLCPPPLSF	0.638 ± 0.016
WTLSGHKHIPED	0.736 ± 0.013
ASMRIVWWFGML	0.495 ± 0.047
SLPRPASYPPRF	0.652 ± 0.079
KRSIEIRTKIKL	0.7 ± 0.022
VWGGWRRGRAWW	0.72411 ± 0.00051
FALLVSDISGRI	0.811 ± 0.03
PVYAYYVPCAPR	0.645 ± 0.091
GSRRSWWVLCLG	0.485 ± 0.072
RRKRTKGRGRAQ	0.6986 ± 0.002
THLDKLYPKEHT	0.689 ± 0.054
GCVVSIICGGRA	0.5639 ± 0.0013
VRFPCGFCKKLS	0.637 ± 0.036
ASAPPHVSAPSP	0.654 ± 0.012

Sequence	protein stability index
DEWAGKYLKTIA	0.702 ± 0.013
PLHPPPPPPPHP	0.717 ± 0.064
PMSPCPTRSINA	0.702 ± 0.031
LPSPLPPPPPAH	0.707 ± 0.0082
PPLPPLPSPLPL	0.674 ± 0.014
PGWHLDPITALP	0.712 ± 0.027
VVGSVFGGVRAA	0.708 ± 0.032
TLCITHARCFVK	0.63 ± 0.0069
PSPPYSRPPLPP	0.698 ± 0.049
PPPRFCSLPDHL	0.636 ± 0.049
SDKVKRYISTTL	0.637 ± 0.023
LSRPPASPPHPP	0.71468 ± 0.00055
LQPLPPYHSIQL	0.703 ± 0.012
FFPSPHVPPPPP	0.617 ± 0.018
GSGRGGWRRGER	0.707 ± 0.042
PDVFLLHASPPG	0.66 ± 0.098
DLASPIFSRFSS	0.687 ± 0.036
YLPWFADLHPGV	0.737 ± 0.073
HVVVSPRSNRIL	0.7429 ± 0.0055
PPPLPSAPPTGT	0.706 ± 0.026
PPSPPPPRPSFP	0.713 ± 0.0096
SPAFPPPPGFPP	0.69 ± 0.04
DGCRLGDFLNRV	0.66 ± 0.042
GIFSGTDRNLVC	0.7075 ± 0.0069
PSPPYPPPSLPH	0.69 ± 0.044

Sequence	protein stability index
PPVAPTPFPPPS	0.684 ± 0.018
PPAPLPQSAPTR	0.645 ± 0.038
GVAPGRSRRKRG	0.67 ± 0.018
ARGALPHHVSCV	0.691 ± 0.11
GRVGLRGRPGPP	0.716 ± 0.12
DGCLMEHSMQVG	0.656 ± 0.035
WGGASIGMGFGA	0.743 ± 0.036
GLGEGLVCFLLG	0.73 ± 0.056
LEPHEIKERRPL	0.721 ± 0.066
PSDYDCHRKTFS	0.738 ± 0.01
RGSSWSRVAGDG	0.631 ± 0.063
TRTQTLAGILGG	0.677 ± 0.029
WGGLGWVWVKLG	0.685 ± 0.072
SYDNPPDTSRPR	0.768 ± 0.046
SATPFSTEVCPL	0.631 ± 0.028
AGAWLVDAAVGV	0.612 ± 0.017
SLDKCDKNNGGE	0.733 ± 0.065
LSVNAGWLQLCA	0.561 ± 0.018
IGGWWCGALLGD	0.79 ± 0.074
CVTFGGCGVWYV	0.624 ± 0.018
PPNPLHPPPSRP	0.653 ± 0.044
